Square brackets hold non-standard residues; d marks the D form. Ends that are not written are not given here. hArg = N=C(N)NCCCC[C@H](N)C(=O)O; Aib = CC(C)(N)C(=O)O
B1: [Aib^3,M]PTH(1-14) (peptide)
peptide: AV[Aib]EIQLMHQ[hArg]AKW-NH2
modifications: N-terminus assumed
SMILES: CC[C@H](C)[C@H](NC(=O)[C@H](CCC(=O)O)NC(=O)C(C)(C)NC(=O)[C@@H](NC(=O)[C@H](C)N)C(C)C)C(=O)N[C@@H](CCC(N)=O)C(=O)N[C@@H](CC(C)C)C(=O)N[C@@H](CCSC)C(=O)N[C@@H](Cc1c[nH]cn1)C(=O)N[C@@H](CCC(N)=O)C(=O)N[C@@H](CCCCNC(=N)N)C(=O)N[C@@H](C)C(=O)N[C@@H](CCCCN)C(=O)N[C@@H](Cc1c[nH]c2ccccc12)C(N)=O
notes: also called 624 Aib-3
B2: [Aib^1,M]PTH(1-14) (peptide)
peptide: [Aib]VAEIQLMHQ[hArg]AKW-NH2
modifications: N-terminus assumed
SMILES: CC[C@H](C)[C@H](NC(=O)[C@H](CCC(=O)O)NC(=O)[C@H](C)NC(=O)[C@@H](NC(=O)C(C)(C)N)C(C)C)C(=O)N[C@@H](CCC(N)=O)C(=O)N[C@@H](CC(C)C)C(=O)N[C@@H](CCSC)C(=O)N[C@@H](Cc1c[nH]cn1)C(=O)N[C@@H](CCC(N)=O)C(=O)N[C@@H](CCCCNC(=N)N)C(=O)N[C@@H](C)C(=O)N[C@@H](CCCCN)C(=O)N[C@@H](Cc1c[nH]c2ccccc12)C(N)=O
notes: also called 622 Aib-1
B3: [Aib^10,M]PTH(1-14) (peptide)
peptide: AVAEIQLMH[Aib][hArg]AKW-NH2
modifications: N-terminus assumed
SMILES: CC[C@H](C)[C@H](NC(=O)[C@H](CCC(=O)O)NC(=O)[C@H](C)NC(=O)[C@@H](NC(=O)[C@H](C)N)C(C)C)C(=O)N[C@@H](CCC(N)=O)C(=O)N[C@@H](CC(C)C)C(=O)N[C@@H](CCSC)C(=O)N[C@@H](Cc1c[nH]cn1)C(=O)NC(C)(C)C(=O)N[C@@H](CCCCNC(=N)N)C(=O)N[C@@H](C)C(=O)N[C@@H](CCCCN)C(=O)N[C@@H](Cc1c[nH]c2ccccc12)C(N)=O
notes: Aib scan of [M]PTH(1-14); Aib replaces the Gln^10 of [M]; also called 631 Aib-10
B4: [Aib^14,M]PTH(1-14) (peptide)
peptide: AVAEIQLMHQ[hArg]AK[Aib]-NH2
modifications: N-terminus assumed
SMILES: CC[C@H](C)[C@H](NC(=O)[C@H](CCC(=O)O)NC(=O)[C@H](C)NC(=O)[C@@H](NC(=O)[C@H](C)N)C(C)C)C(=O)N[C@@H](CCC(N)=O)C(=O)N[C@@H](CC(C)C)C(=O)N[C@@H](CCSC)C(=O)N[C@@H](Cc1c[nH]cn1)C(=O)N[C@@H](CCC(N)=O)C(=O)N[C@@H](CCCCNC(=N)N)C(=O)N[C@@H](C)C(=O)N[C@@H](CCCCN)C(=O)NC(C)(C)C(N)=O
notes: Aib scan of [M]PTH(1-14); Aib replaces the Trp^14 of [M]; also called 635 Aib-14
B5: [Aib^13,M]PTH(1-14) (peptide)
peptide: AVAEIQLMHQ[hArg]A[Aib]W-NH2
modifications: N-terminus assumed
SMILES: CC[C@H](C)[C@H](NC(=O)[C@H](CCC(=O)O)NC(=O)[C@H](C)NC(=O)[C@@H](NC(=O)[C@H](C)N)C(C)C)C(=O)N[C@@H](CCC(N)=O)C(=O)N[C@@H](CC(C)C)C(=O)N[C@@H](CCSC)C(=O)N[C@@H](Cc1c[nH]cn1)C(=O)N[C@@H](CCC(N)=O)C(=O)N[C@@H](CCCCNC(=N)N)C(=O)N[C@@H](C)C(=O)NC(C)(C)C(=O)N[C@@H](Cc1c[nH]c2ccccc12)C(N)=O
notes: Aib scan of [M]PTH(1-14); also called 634 Aib-13
B6: [Aib^12,M]PTH(1-14) (peptide)
peptide: AVAEIQLMHQ[hArg][Aib]KW-NH2
modifications: N-terminus assumed
SMILES: CC[C@H](C)[C@H](NC(=O)[C@H](CCC(=O)O)NC(=O)[C@H](C)NC(=O)[C@@H](NC(=O)[C@H](C)N)C(C)C)C(=O)N[C@@H](CCC(N)=O)C(=O)N[C@@H](CC(C)C)C(=O)N[C@@H](CCSC)C(=O)N[C@@H](Cc1c[nH]cn1)C(=O)N[C@@H](CCC(N)=O)C(=O)N[C@@H](CCCCNC(=N)N)C(=O)NC(C)(C)C(=O)N[C@@H](CCCCN)C(=O)N[C@@H](Cc1c[nH]c2ccccc12)C(N)=O
notes: Aib scan of [M]PTH(1-14); Aib replaces the Ala^12 of [M]; also called 633 Aib-12

molecular target: T1, wild-type human PTH/PTHrP receptor (hP1R-WT) (human, UniProt Q03431 27-593); assay: cell-based or functional assay
T1 sequence (looked up): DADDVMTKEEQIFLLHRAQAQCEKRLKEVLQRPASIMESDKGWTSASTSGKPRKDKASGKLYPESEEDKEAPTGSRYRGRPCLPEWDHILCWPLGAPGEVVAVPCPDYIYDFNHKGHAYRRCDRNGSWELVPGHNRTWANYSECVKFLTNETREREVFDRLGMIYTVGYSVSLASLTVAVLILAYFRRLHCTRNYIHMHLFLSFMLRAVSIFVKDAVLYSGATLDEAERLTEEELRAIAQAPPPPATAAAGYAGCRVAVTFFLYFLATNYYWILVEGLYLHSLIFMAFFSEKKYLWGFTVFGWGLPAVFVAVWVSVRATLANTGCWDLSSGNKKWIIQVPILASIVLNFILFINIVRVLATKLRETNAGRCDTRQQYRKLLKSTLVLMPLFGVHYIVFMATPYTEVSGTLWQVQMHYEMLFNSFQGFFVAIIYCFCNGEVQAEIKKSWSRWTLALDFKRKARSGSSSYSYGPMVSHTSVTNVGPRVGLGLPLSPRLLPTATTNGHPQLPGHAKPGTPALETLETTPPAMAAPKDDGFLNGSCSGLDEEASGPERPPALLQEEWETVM

Molecule | cAMP EC50 in SaOS-2 cells | cAMP EMAX(obs.) in SaOS-2 cells
B1 | 42 nM | 330 pmole/well
B2 | 22 nM | 340 pmole/well

molecular target: wild-type human PTH/PTHrP receptor (hP1R-WT) (human) (UniProt Q03431); assay: cell-based or functional assay

Molecule | cAMP EC50 | cAMP EMax(obs.)
[Aib^11,M]PTH(1-14) (peptide) | 67000 nM | 96 pmole/well

molecular target: T1, wild-type human PTH/PTHrP receptor …; assay: competition binding, 125I-[M]PTH(1-21) tracer, HKRK-B28 cells
Method: (§1) Cells were then placed on ice, the binding medium was removed, and the monolayer was rinsed three times with 0.5 mL of cold binding buffer. The cells were subsequently lysed with 0.5 mL […] NaOH and counted for radioactivity. For each tracer and in each experiment, the non-specific binding was determined as the radioactivity that bound in the presence of the same unlabeled peptide at a concentration of 1 μM, and was ˜1% of total radioactivity added for each tracer. The maximum specific binding (B₀) was the total radioactivity bound in the absence of competing ligand, corrected for nonspecific binding, and for each tracer, ranged from 8% to 20% of the total radioactivity added. Nonlinear regression was used to calculate binding IC₅₀ values (see below). Scatchard transformations of homologous competition binding data derived from studies with 26 fmol of ¹²⁵I-[Aib^{1,3},M]PTH(1-21) were employed for estimations of apparent equilibrium dissociation constant (kDapps) and total number of ligand binding sites (Bₘₐₓ), assuming a single class of binding sites and equal affinities of the iodinated and non iodinated ligand.
Relative to the apparent binding affinity of [M]PTH(1-14), most of the Aib substitutions reduced affinity, in accordance with the corresponding effects on cAMP-signaling potency (Table 1).

Molecule | fold improvement in affinity relative to [M]PTH(1-14) | fold reduction in affinity relative to [M]PTH(1-14)
B3 | 1.4 fold | –
B4 | – | < 10 fold
B5 | – | < 10 fold
B1 | 8 fold | –
B6 | – | < 10 fold
B2 | 13 fold | –

molecular target: T1, wild-type human PTH/PTHrP receptor …; assay: cell-based or functional assay; remark: another data set of the same source

Molecule | cAMP EC50 | cAMP EMax(obs.)
B3 | 3000 nM | 214 pmole/well
B4 | 350 nM | 273 pmole/well
B5 | 480 nM | 259 pmole/well
B1 | 13 nM | 269 pmole/well
B6 | 440 nM | 263 pmole/well
B2 | 10 nM | 273 pmole/well

molecular target: T1, wild-type human PTH/PTHrP receptor …; assay: competition binding, 125I-[M]PTH(1-21) tracer, HKRK-B28 cells, 4 h at 4 C
Method: as §1, with “Competition Binding. Binding reactions were performed with HKRK-B28 cells or in COS-7 cells in 24-well plates. The cells were rinsed with 0.5 mL of binding buffer, and then treated successively with 100 μL binding buffer, 100 μL of binding buffer containing various amounts of unlabeled competitor ligand, and 100 μL of binding buffer containing ca. 100,000 cpm of ¹²⁵I-[M]PTH(1-21) or ¹²⁵I-[Aib^{1,3},M]PTH(1-21)} (ca. 26 fmol; final volume=300 μL). Incubations were 4 to 6 h at 4° C., at which time near equilibrium conditions were attained. Cells” for “Cells”
Peptides PTH(1-34) ([Nle^{8,21}, Tyr³⁴]PTH(1-34)amide), [M]PTH(1-14) (M = Ala^{3,12}, Gln¹⁰, Har¹¹, Trp¹⁴), and [M]PTH(1-14 analogs, or C-terminally truncated derivatives thereof, containing α-aminoisobutyric acid (Aib) substitutions at the indicated positions were functionally evaluated in HKRK-B28 cells. “M” in [Aib^{1,3}, M]PTH(1-21) = Nle⁸, Gln¹⁰, Har¹¹, Ala¹², Trp¹⁴, Arg¹⁹ and Tyr²¹. The basal cAMP values (not subtracted) were 4.0 ± 0.1 pmole/well (n = 10). Peptides were based on the rat PTH sequence and were carboxy-amidated. Competition binding analyses were performed with ¹²⁵I-[M]PTH(1-21 )amide (Ala^{1,3}) as tracer for 4 h at 4° C. Data are means (±S.E.M.) Of the number of experiments indiated (n).

Molecule | IC50
B3 | 9100 nM
B4 | 79000 nM
B5 | 44000 nM
B1 | 1700 nM
B6 | 15000 nM
B2 | 980 nM
